The Human Domainome abundance scans (Beltran et al. 2025)
± gives the uncertainty stated by the source.

Assay: abundance fitness (aPCA) (normalised: wild type 0, dead -1); higher = more abundant; growth selection in yeast, the domain comes from the species named
Conditions: Homo sapiens

**Q.** With “BAG family molecular chaperone regulator 3 G17I, O95817” as the substance, how does the abundance fitness read?
**A.** Its abundance fitness is 0.73 ± 0.092.

**Q.** Which abundance fitness does the source give for “BAG family molecular chaperone regulator 3 G17K, O95817” here?
**A.** Its abundance fitness is 0.564 ± 0.093.

**Q.** For “BAG family molecular chaperone regulator 3 G17L, O95817”, which abundance fitness is on record?
**A.** The abundance fitness was 0.282 ± 0.087.

**Q.** Which abundance fitness does the source give for “BAG family molecular chaperone regulator 3 G17M, O95817” here?
**A.** The abundance fitness was 0.25 ± 0.21.

**Q.** With “BAG family molecular chaperone regulator 3 G17N, O95817” as the substance, how does the abundance fitness read?
**A.** The abundance fitness was 0.913 ± 0.13.

**Q.** Which abundance fitness does the source give for “BAG family molecular chaperone regulator 3 G17P, O95817” here?
**A.** The abundance fitness was 1.15 ± 0.12.

**Q.** For “BAG family molecular chaperone regulator 3 G17Q, O95817”, which abundance fitness is on record?
**A.** The abundance fitness was 0.968 ± 0.098.

**Q.** Which abundance fitness does the source give for “BAG family molecular chaperone regulator 3 G17R, O95817” here?
**A.** Its abundance fitness is 0.791 ± 0.06.

**Q.** For “BAG family molecular chaperone regulator 3 G17S, O95817”, which abundance fitness is on record?
**A.** The abundance fitness was 0.82 ± 0.073.

**Q.** Which abundance fitness does the source give for “BAG family molecular chaperone regulator 3 G17T, O95817” here?
**A.** The abundance fitness was 0.943 ± 0.083.

**Q.** With “BAG family molecular chaperone regulator 3 G17W, O95817” as the substance, how does the abundance fitness read?
**A.** Its abundance fitness is 0.329 ± 0.083.

**Q.** With “BAG family molecular chaperone regulator 3 G17Y, O95817” as the substance, how does the abundance fitness read?
**A.** Its abundance fitness is 0.213 ± 0.22.

**Q.** For “BAG family molecular chaperone regulator 3 G25A, O95817”, which abundance fitness is on record?
**A.** Its abundance fitness is -0.712 ± 0.17.

**Q.** Which abundance fitness does the source give for “BAG family molecular chaperone regulator 3 G25C, O95817” here?
**A.** Its abundance fitness is -0.74 ± 0.17.

**Q.** For “BAG family molecular chaperone regulator 3 G25D, O95817”, which abundance fitness is on record?
**A.** The abundance fitness was -0.548 ± 0.23.

**Q.** For “BAG family molecular chaperone regulator 3 G25H, O95817”, which abundance fitness is on record?
**A.** Its abundance fitness is -0.125 ± 0.065.

**Q.** Which abundance fitness does the source give for “BAG family molecular chaperone regulator 3 G25K, O95817” here?
**A.** The abundance fitness was -0.492 ± 0.23.

**Q.** Which abundance fitness does the source give for “BAG family molecular chaperone regulator 3 G25L, O95817” here?
**A.** The abundance fitness was -0.784 ± 0.19.

**Q.** With “BAG family molecular chaperone regulator 3 G25M, O95817” as the substance, how does the abundance fitness read?
**A.** The abundance fitness was -0.652 ± 0.075.

**Q.** For “BAG family molecular chaperone regulator 3 G25N, O95817”, which abundance fitness is on record?
**A.** Its abundance fitness is 0.081 ± 0.21.

**Q.** For “BAG family molecular chaperone regulator 3 G25Q, O95817”, which abundance fitness is on record?
**A.** The abundance fitness was -1.03 ± 0.27.

**Q.** Which abundance fitness does the source give for “BAG family molecular chaperone regulator 3 G25R, O95817” here?
**A.** The abundance fitness was -0.432 ± 0.14.

**Q.** For “BAG family molecular chaperone regulator 3 G25S, O95817”, which abundance fitness is on record?
**A.** Its abundance fitness is -0.726 ± 0.19.

**Q.** With “BAG family molecular chaperone regulator 3 G25T, O95817” as the substance, how does the abundance fitness read?
**A.** The abundance fitness was -0.667 ± 0.22.

**Q.** With “BAG family molecular chaperone regulator 3 G25V, O95817” as the substance, how does the abundance fitness read?
**A.** Its abundance fitness is -1.23 ± 0.33.

**Q.** With “BAG family molecular chaperone regulator 3 G25W, O95817” as the substance, how does the abundance fitness read?
**A.** Its abundance fitness is -0.875 ± 0.34.

**Q.** Which abundance fitness does the source give for “BAG family molecular chaperone regulator 3 G35A, O95817” here?
**A.** The abundance fitness was 0.335 ± 0.063.

**Q.** For “BAG family molecular chaperone regulator 3 G35C, O95817”, which abundance fitness is on record?
**A.** Its abundance fitness is 0.146 ± 0.17.

**Q.** With “BAG family molecular chaperone regulator 3 G35D, O95817” as the substance, how does the abundance fitness read?
**A.** Its abundance fitness is 0.202 ± 0.13.

**Q.** With “BAG family molecular chaperone regulator 3 G35F, O95817” as the substance, how does the abundance fitness read?
**A.** Its abundance fitness is -0.552 ± 0.11.

**Q.** For “BAG family molecular chaperone regulator 3 G35H, O95817”, which abundance fitness is on record?
**A.** The abundance fitness was 0.552 ± 0.28.

**Q.** Which abundance fitness does the source give for “BAG family molecular chaperone regulator 3 G35K, O95817” here?
**A.** Its abundance fitness is 0.766 ± 0.078.

**Q.** Which abundance fitness does the source give for “BAG family molecular chaperone regulator 3 G35L, O95817” here?
**A.** The abundance fitness was -0.184 ± 0.14.

**Q.** With “BAG family molecular chaperone regulator 3 G35M, O95817” as the substance, how does the abundance fitness read?
**A.** Its abundance fitness is -0.158 ± 0.16.

**Q.** Which abundance fitness does the source give for “BAG family molecular chaperone regulator 3 G35N, O95817” here?
**A.** The abundance fitness was 1.26 ± 0.22.

**Q.** With “BAG family molecular chaperone regulator 3 G35P, O95817” as the substance, how does the abundance fitness read?
**A.** The abundance fitness was -0.237 ± 0.21.

**Q.** Which abundance fitness does the source give for “BAG family molecular chaperone regulator 3 G35Q, O95817” here?
**A.** The abundance fitness was 0.41 ± 0.11.

**Q.** Which abundance fitness does the source give for “BAG family molecular chaperone regulator 3 G35R, O95817” here?
**A.** The abundance fitness was 0.366 ± 0.078.

**Q.** Which abundance fitness does the source give for “BAG family molecular chaperone regulator 3 G35S, O95817” here?
**A.** Its abundance fitness is 0.442 ± 0.064.

**Q.** For “BAG family molecular chaperone regulator 3 G35T, O95817”, which abundance fitness is on record?
**A.** Its abundance fitness is -0.006 ± 0.11.

**Q.** Which abundance fitness does the source give for “BAG family molecular chaperone regulator 3 G35V, O95817” here?
**A.** The abundance fitness was -0.589 ± 0.16.

**Q.** For “BAG family molecular chaperone regulator 3 G35W, O95817”, which abundance fitness is on record?
**A.** Its abundance fitness is -0.726 ± 0.19.

**Q.** Which abundance fitness does the source give for “BAG family molecular chaperone regulator 3 G35Y, O95817” here?
**A.** The abundance fitness was -0.304 ± 0.24.

**Q.** For “BAG family molecular chaperone regulator 3 G58A, O95817”, which abundance fitness is on record?
**A.** The abundance fitness was -0.45 ± 0.15.

**Q.** With “BAG family molecular chaperone regulator 3 G58C, O95817” as the substance, how does the abundance fitness read?
**A.** Its abundance fitness is -0.17 ± 0.25.

**Q.** For “BAG family molecular chaperone regulator 3 G58D, O95817”, which abundance fitness is on record?
**A.** The abundance fitness was 0.238 ± 0.18.

**Q.** Which abundance fitness does the source give for “BAG family molecular chaperone regulator 3 G58E, O95817” here?
**A.** The abundance fitness was -0.045 ± 0.18.

**Q.** Which abundance fitness does the source give for “BAG family molecular chaperone regulator 3 G58F, O95817” here?
**A.** The abundance fitness was -0.382 ± 0.37.

**Q.** With “BAG family molecular chaperone regulator 3 G58H, O95817” as the substance, how does the abundance fitness read?
**A.** The abundance fitness was -0.263 ± 0.1.

**Q.** With “BAG family molecular chaperone regulator 3 G58I, O95817” as the substance, how does the abundance fitness read?
**A.** Its abundance fitness is 0.138 ± 0.28.

**Q.** Which abundance fitness does the source give for “BAG family molecular chaperone regulator 3 G58L, O95817” here?
**A.** Its abundance fitness is -0.211 ± 0.2.

**Q.** With “BAG family molecular chaperone regulator 3 G58M, O95817” as the substance, how does the abundance fitness read?
**A.** Its abundance fitness is 0.512 ± 0.17.

**Q.** Which abundance fitness does the source give for “BAG family molecular chaperone regulator 3 G58N, O95817” here?
**A.** Its abundance fitness is 0.51 ± 0.35.

**Q.** With “BAG family molecular chaperone regulator 3 G58P, O95817” as the substance, how does the abundance fitness read?
**A.** The abundance fitness was -0.032 ± 0.29.

**Q.** With “BAG family molecular chaperone regulator 3 G58Q, O95817” as the substance, how does the abundance fitness read?
**A.** Its abundance fitness is 0.85 ± 0.19.

**Q.** For “BAG family molecular chaperone regulator 3 G58R, O95817”, which abundance fitness is on record?
**A.** The abundance fitness was -0.214 ± 0.08.

**Q.** With “BAG family molecular chaperone regulator 3 G58S, O95817” as the substance, how does the abundance fitness read?
**A.** The abundance fitness was -0.193 ± 0.11.

**Q.** With “BAG family molecular chaperone regulator 3 G58V, O95817” as the substance, how does the abundance fitness read?
**A.** The abundance fitness was -0.129 ± 0.064.

**Q.** For “BAG family molecular chaperone regulator 3 G58W, O95817”, which abundance fitness is on record?
**A.** The abundance fitness was -0.682 ± 0.29.

**Q.** For “BAG family molecular chaperone regulator 3 H42A, O95817”, which abundance fitness is on record?
**A.** Its abundance fitness is -0.857 ± 0.15.

**Q.** With “BAG family molecular chaperone regulator 3 H42C, O95817” as the substance, how does the abundance fitness read?
**A.** The abundance fitness was -0.457 ± 0.33.

**Q.** For “BAG family molecular chaperone regulator 3 H42E, O95817”, which abundance fitness is on record?
**A.** Its abundance fitness is -0.738 ± 0.33.

**Q.** Which abundance fitness does the source give for “BAG family molecular chaperone regulator 3 H42G, O95817” here?
**A.** The abundance fitness was -0.65 ± 0.09.

**Q.** For “BAG family molecular chaperone regulator 3 H42I, O95817”, which abundance fitness is on record?
**A.** Its abundance fitness is -0.625 ± 0.29.

**Q.** For “BAG family molecular chaperone regulator 3 H42K, O95817”, which abundance fitness is on record?
**A.** The abundance fitness was -0.942 ± 0.42.
